Test [1] has as its target IcmQ with a C-terminal 6xHis-tag (Legionella pneumophila). Kind of test: […].
The target is the same in test [2]. Kind of test: SEC. (In general: SEC sorts molecules by how far they enter the pores of the column.)
Test [3] concerns the target Qn(1-57), N-terminal domain of IcmQ (Legionella pneumophila). Description: SEC.

Consider two substances from paper PMC2693034.

The term stoichiometry N denotes the number of molecules, sites or subunits per partner or assembly. As to “IcmQ with a C-terminal 6xHis-tag (natural protein)”, the stoichiometry N in test [1] and in test [2] was 2 in each case. “Qn(1-57), N-terminal domain of IcmQ (domain or fragment)” registered a stoichiometry N in test [3] of 2.
